Laboratory results from publication PMC10836841.

Biological target: PhiKo endolysin (Thermus thermophilus HB27 bacteriophage phiKo)
Test: AUC; sedimentation velocity, 50,000 rpm, 4°C, 20 mM MES, 150 mM NaCl, pH 6.0, in the absence or presence of 20 mM DPC detergent; PhiKo endolysin 1.2 mg/mL; continuous c(s) distribution (SEDFIT); monomer to dimer

percent of the signal in the dimer peak (with 20 mM DPC): 15%
percent of the signal in the dimer peak (without DPC): 2.3%
stoichiometry N: 2
Substance: PhiKo endolysin (enzyme)
